Measured values as given in the supplement of paper PMC7877785.
± gives the uncertainty stated by the source.

Test: self-splicing fitness, log relative to wild type (ln ratio); higher = more splicing; Tetrahymena group I intron in knt gene, E. coli kanamycin selection, DiMSum; sequences stand for … in CUCUCU…GGAGGGAAAAGUUAUCAGGCAUGCACCUGGUAGCUAGUCUUUAAACCAAUAGAUUGCAUCGGUUUAAAAGGCAAGACCGUCAAAUUGCGGGAAAGGGGUCAACAGCCGUUCAGUACCAAGUCUCAGGGGAAACUUUGAGAUGGCCUUGCAAAGGGUAUGGUAAUAAGCUGACGGACAUGGUCCUAACCACGCAGCCAAGUCCUAAGUCAACAGAUCUUCUGUUGAUAUGGAUGCAGUUCACAGACUAAAUGUCGGUCGGGGAAGAUGUAUUCUUCUCAUAAGAUAUAGUCGGACCUCUCCUUAAUGGGAGCUAGCGGAUGAAGUGAUGCAACACUGGAGCCGCUGGGAACUAAUUUGUAUGCGAAAGUAUAUUGAUUAGUUUUGGAGUACUCGUGGUCG
How it was run: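 Colonies from six replicate transformations of E. coli BL21(DE3) were pooled and amplicon-sequenced on an Illumina HiSeq 2500. The library placed an intron with all eight P1ex-region nucleotides randomised inside the knt kanamycin-resistance gene on pET-22b(+), and cells grew overnight at 37°C or 30°C on LB agar with or without 25 μg/mL kanamycin (plus 100 μg/mL carbenicillin, 50 μM IPTG, 0.2% rhamnose). Fitness is the DiMSum error-weighted combination of wild-type-normalised replicate fold changes, kanamycin versus none.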

## AGAAAGCAAUAUUACGCAAG
30 °C
  self-splicing fitness (ln): -1.66 ± 0.13
37 °C
  self-splicing fitness (ln): -1.32 ± 0.18

## AGAAAGCAAUAUUACGCCGU
30 °C
  self-splicing fitness (ln): -0.929 ± 0.11
37 °C
  self-splicing fitness (ln): -0.341 ± 0.13

## AGAAAGCAAUAUUACGCUGU
30 °C
  self-splicing fitness (ln): -2.34 ± 0.14
37 °C
  self-splicing fitness (ln): -1.98 ± 0.16

## AGAAAGCAAUAUUACGGCAU
30 °C
  self-splicing fitness (ln): -0.587 ± 0.051
37 °C
  self-splicing fitness (ln): -0.525 ± 0.064

## AGAAAGCAAUAUUACGGGUC
30 °C
  self-splicing fitness (ln): -3.05 ± 0.21
37 °C
  self-splicing fitness (ln): -3.35 ± 0.31

## AGAAAGCAAUAUUACGGGUU
30 °C
  self-splicing fitness (ln): -2.85 ± 0.15
37 °C
  self-splicing fitness (ln): -1.61 ± 0.12

## AGAAAGCAAUAUUACGGUCG
30 °C
  self-splicing fitness (ln): -0.278 ± 0.07
37 °C
  self-splicing fitness (ln): -0.0273 ± 0.092

## AGAAAGCAAUAUUACGUACU
30 °C
  self-splicing fitness (ln): -0.412 ± 0.096
37 °C
  self-splicing fitness (ln): 0.261 ± 0.11

## AGAAAGCAAUAUUACGUCCC
30 °C
  self-splicing fitness (ln): -0.156 ± 0.18
37 °C
  self-splicing fitness (ln): 0.119 ± 0.25

## AGAAAGCAAUAUUACGUCUA
30 °C
  self-splicing fitness (ln): -0.728 ± 0.091
37 °C
  self-splicing fitness (ln): -0.00176 ± 0.092

## AGAAAGCAAUAUUACGUCUU
30 °C
  self-splicing fitness (ln): -1.77 ± 0.09
37 °C
  self-splicing fitness (ln): -0.678 ± 0.088

## AGAAAGCAAUAUUACGUGGA
30 °C
  self-splicing fitness (ln): -2.47 ± 0.12
37 °C
  self-splicing fitness (ln): -2.28 ± 0.13

## AGAAAGCAAUAUUACGUUCA
30 °C
  self-splicing fitness (ln): -0.142 ± 0.084
37 °C
  self-splicing fitness (ln): 0.14 ± 0.12

## AGAAAGCAAUAUUACGUUUU
30 °C
  self-splicing fitness (ln): -3.84 ± 0.17
37 °C
  self-splicing fitness (ln): -3.06 ± 0.2

## AGACAGCAAUAUUACGACCU
30 °C
  self-splicing fitness (ln): 0.0744 ± 0.084
37 °C
  self-splicing fitness (ln): -0.545 ± 0.093

## AGACAGCAAUAUUACGACGG
30 °C
  self-splicing fitness (ln): -2.19 ± 0.14
37 °C
  self-splicing fitness (ln): -1.86 ± 0.13

## AGACAGCAAUAUUACGACUA
30 °C
  self-splicing fitness (ln): -0.888 ± 0.092
37 °C
  self-splicing fitness (ln): -0.383 ± 0.088

## AGACAGCAAUAUUACGAGGC
30 °C
  self-splicing fitness (ln): -3.34 ± 0.23
37 °C
  self-splicing fitness (ln): -2.82 ± 0.3

## AGACAGCAAUAUUACGCAGU
30 °C
  self-splicing fitness (ln): -3.96 ± 0.2
37 °C
  self-splicing fitness (ln): -3.04 ± 0.27

## AGACAGCAAUAUUACGCCCA
30 °C
  self-splicing fitness (ln): -0.00321 ± 0.2
37 °C
  self-splicing fitness (ln): 0.432 ± 0.28

## AGACAGCAAUAUUACGCCCU
30 °C
  self-splicing fitness (ln): -0.687 ± 0.083
37 °C
  self-splicing fitness (ln): 0.0722 ± 0.1

## AGACAGCAAUAUUACGCCGG
30 °C
  self-splicing fitness (ln): -2.95 ± 0.18
37 °C
  self-splicing fitness (ln): -1.67 ± 0.16

## AGACAGCAAUAUUACGCGCG
30 °C
  self-splicing fitness (ln): -0.587 ± 0.074
37 °C
  self-splicing fitness (ln): 0.222 ± 0.096

## AGACAGCAAUAUUACGCUAU
30 °C
  self-splicing fitness (ln): -3.31 ± 0.18
37 °C
  self-splicing fitness (ln): -0.948 ± 0.12

## AGACAGCAAUAUUACGCUGC
30 °C
  self-splicing fitness (ln): -3.72 ± 0.2
37 °C
  self-splicing fitness (ln): -2.64 ± 0.24

## AGACAGCAAUAUUACGCUGG
30 °C
  self-splicing fitness (ln): -3.98 ± 0.31
37 °C
  self-splicing fitness (ln): -3.5 ± 0.3

## AGACAGCAAUAUUACGGAAU
30 °C
  self-splicing fitness (ln): -3.47 ± 0.14
37 °C
  self-splicing fitness (ln): -2.29 ± 0.17

## AGACAGCAAUAUUACGGACC
30 °C
  self-splicing fitness (ln): -0.551 ± 0.075
37 °C
  self-splicing fitness (ln): -0.201 ± 0.086

## AGACAGCAAUAUUACGGAGG
30 °C
  self-splicing fitness (ln): -3.35 ± 0.18
37 °C
  self-splicing fitness (ln): -2.48 ± 0.23

## AGACAGCAAUAUUACGGCAA
30 °C
  self-splicing fitness (ln): -1.37 ± 0.064
37 °C
  self-splicing fitness (ln): -0.634 ± 0.079

## AGACAGCAAUAUUACGGCCC
30 °C
  self-splicing fitness (ln): -0.119 ± 0.2
37 °C
  self-splicing fitness (ln): -0.253 ± 0.25

## AGACAGCAAUAUUACGGCGU
30 °C
  self-splicing fitness (ln): -0.937 ± 0.057
37 °C
  self-splicing fitness (ln): -0.314 ± 0.065

## AGACAGCAAUAUUACGGGAA
30 °C
  self-splicing fitness (ln): -2.68 ± 0.18
37 °C
  self-splicing fitness (ln): -1.38 ± 0.14

## AGACAGCAAUAUUACGGGGU
30 °C
  self-splicing fitness (ln): -3.82 ± 0.17
37 °C
  self-splicing fitness (ln): -2.25 ± 0.15

## AGACAGCAAUAUUACGGUUG
30 °C
  self-splicing fitness (ln): -1.85 ± 0.088
37 °C
  self-splicing fitness (ln): -1.87 ± 0.13

## AGACAGCAAUAUUACGUUAC
30 °C
  self-splicing fitness (ln): -3.81 ± 0.19
37 °C
  self-splicing fitness (ln): -1.34 ± 0.17

## AGACAGCAAUAUUACGUUUG
30 °C
  self-splicing fitness (ln): -3.34 ± 0.11
37 °C
  self-splicing fitness (ln): -1.22 ± 0.086

## AGAGAGCAAUAUUACGAACU
30 °C
  self-splicing fitness (ln): -1.81 ± 0.2
37 °C
  self-splicing fitness (ln): -1.57 ± 0.2

## AGAGAGCAAUAUUACGACUA
30 °C
  self-splicing fitness (ln): -2.42 ± 0.44

## AGAGAGCAAUAUUACGAGAG
37 °C
  self-splicing fitness (ln): -2.3 ± 0.44

## AGAGAGCAAUAUUACGGCCU
30 °C
  self-splicing fitness (ln): -0.408 ± 0.3
37 °C
  self-splicing fitness (ln): -2.58 ± 0.5

## AGAGAGCAAUAUUACGGCGU
30 °C
  self-splicing fitness (ln): -2.48 ± 0.19
37 °C
  self-splicing fitness (ln): -2.7 ± 0.25

## AGAGAGCAAUAUUACGGUCC
30 °C
  self-splicing fitness (ln): -2.21 ± 0.3
37 °C
  self-splicing fitness (ln): -0.974 ± 0.46

## AGAGAGCAAUAUUACGGUCU
30 °C
  self-splicing fitness (ln): -3.2 ± 0.15
37 °C
  self-splicing fitness (ln): -2.71 ± 0.29

## AGAGAGCAAUAUUACGGUGU
30 °C
  self-splicing fitness (ln): -3.59 ± 0.25
37 °C
  self-splicing fitness (ln): -2.97 ± 0.22

## AGAGAGCAAUAUUACGUAUG
30 °C
  self-splicing fitness (ln): -4.21 ± 0.24
37 °C
  self-splicing fitness (ln): -3.33 ± 0.27

## AGAGAGCAAUAUUACGUCGU
30 °C
  self-splicing fitness (ln): -3.77 ± 0.32
37 °C
  self-splicing fitness (ln): -1.78 ± 0.22

## AGAGAGCAAUAUUACGUGUU
30 °C
  self-splicing fitness (ln): -3.21 ± 0.18
37 °C
  self-splicing fitness (ln): -3.64 ± 0.36
